Key:
[1] = target: retromer (VPS26–VPS29–VPS35) (UniProt O75436); assay: SEC-MALS
human VPS29 (human) = human VPS29 (human) (UniProt Q9UBQ0); assay: ITC
[2] = target: retromer (VPS26–VPS29–VPS35) (UniProt O75436); assay: ITC

Substance | Kd [2] | other results
RidL (Lpg2311/Ceg28), full length (from UniProt Q5ZT54 1-1167) (natural protein) | 151 nM | stoichiometry N (RidL per retromer (printed as 1:1)) [1]: 1; stoichiometry N (RidL per retromer (printed as 2:2)) [1]: 1; Kd (human VPS29 (human)): 181 nM
RidL_(30–236) (domain or fragment) | 164 nM | 
TBC1D5TBC (TBC GAP domain of human TBC1D5, residues 1–419) (from UniProt Q92609 1-419) (domain or fragment) | 450 nM | 
VARPc (VARP residues 396–746, the two cysteine-rich domains) (from UniProt Q96NW4 396-746) (domain or fragment) | 3000 nM | 
retromer (VPS26–VPS29–VPS35) (from UniProt O75436;Q9UBQ0;Q96QK1) (complex) |  | stoichiometry N [1]: 2
